Experimental data reported in patent US5352603A, “Highly alkaline proteases” (Kali-Chemie AG, priority 1989, dated 1994).

Assays:
[1] = Washing test in Linitest with IEC test detergent with perborate (Example 19); conditions: pH 10.5, 30 minutes at 45° C.
Experimental: (§1) The washing tests were carried out in a Linitest with EMPA 117 (11 cm×11 cm; polyester/cotton blended fabric, soiled with milk, blood and permanent ink) as the test fabric (purchased from the Eidgenoessische Material pruefungsanstalt, Sankt Gallen, Switzerland)- Washing was carried out with 6 g/l IEC test detergent with perborate, type 1 (Lever Sunlicht GmbH, Mannheim; composition: 6.4% by weight linear alkylsulfonates, 2.3% by weight ethoxylated fatty alcohols with 14% ethoxy groups, 2.8% by weight sodium soap, 35% by weight sodium tripolyphosphate, 6% by weight sodium silicate, 1.5% by weight magnesium silicate, 1% by weight carboxy/methylcellulose, 0.2% by weight ethylenediaminetetraacetic acid (EDTA), 0.2% by weight optical brightener (stilbene type), 16.8% by weight sodium sulfate, and 7.8% by weight water as a spray-dried powder without bleach activator plus 20% by weight sodium perborate tetrahydrate) in water having a hardness of 15° on the German hardness scale. The pH of the wash liquor was pH 10.5. The washing time was 30 minutes at 45° C., and in each case 20 U of protease (prepared as described in Example 18) were employed per 100 ml. After the washing process was complete, the pieces of fabric were rinsed three times with tap water, dried and subsequently ironed. The reflection of the pieces of test cloth was determined four times on each side.

[2] = Washing test in Linitest with European-formulation detergent (Example 20); conditions: analogous to Example 19
Experimental: as §1, with “side. […]” for “side.”

B1: Initial protease: non-mutated highly alkaline protease from Bacillus alcalophilus HA1 (DSM 5466), amino-acid sequence of FIG. 1 (SEQ. ID. NO. 2) (protein)
chain: MKKPLGKIVASTALLISVAFSSSIASAAEEAKEKYLIGFNEQEAVSEFVEQVEANDEVAILSEEEEVEIELLHEFETIPVLSVELSPEDVDALELDPAISYIEEDAEVTTMAQSVPWGISRVQAPAAHNRGLTGSGVKVAVLDTGISTHPDLNIRGGASFVPGEPSTQDGNGHGTHVAGTIAALNNSIGVLGVAPSAELYAVKVLGASGSGSVSSIAQGLEWAGNNGMHVANLSLGSPSPSATLEQAVNSATSRGVLVVAASGNSGAGSISYPARYANAMAVGATDQNNNRASFSQYGAGLDIVAPGVNVQSTYPGSTYASLNGTSMATPHVAGAAALVKQKNPSWSNV
In the case of B1, the Reflection ([1]; 6 g/l IEC test detergent with perborate, type 1, 20 U of protease per 100 ml, averages of 16 washing tests) is reported as 71.1%, the “Relative Reflection” value ([1]; relative to initial protease = 100%, IEC test detergent with perborate, 20 U protease per 100 ml) is reported as 100% and the Reflection ([2]; detergent in a formulation suitable for Europe (anionic and non-ionic surfactant, sodium tripolyphosphate, sodium perborate)) is reported as 65.6%. For the same molecule, the “Relative Reflection” value ([2]; relative to initial protease = 100%, detergent in a formulation suitable for Europe) was 100%.
